Experimental data published in patent US20250043302A1, “MUTATED HYDROXYPHENYLPYRUVATE DIOXYGENASE POLYPEPTIDE, AND CODING GENE AND USE THEREOF” (BEIJING DABEINONG BIOTECHNOLOGY CO., LTD., priority 2021, published 2025).
Residue numbers refer to the chain shown, from its start. Names and notes keep the numbering of the source.

B1: AsHPPDm-F372G-F383W-02: nucleotide sequence encoding Avena sativa HPPD with F372G+F383W; vector DBN11775 (nucleic acid)
DNA: ATGCCACCTACTCCAGCTACAGCTACTGGTGCTGCTGCTGCTGCCGTTACTCCTGAGCACGCTGCCAGGTCATTCCCCAGGGTGGTTCGCGTGAACCCCAGATCTGATAGGTTCCCAGTTCTGAGCTTCCACCATGTTGAGCTGTGGTGCGCTGATGCTGCTTCTGCTGCTGGCAGGTTCTCTTTCGCTCTTGGTGCTCCACTCGCTGCTAGATCTGATCTGTCTACAGGAAATAGCGCTCATGCCTCACTCCTGCTTCGCTCAGGTGCTTTGGCCTTCCTCTTCACCGCTCCATATGCTCCCCCACCTCAGGAGGCTGCTACTGCTGCTGCTACAGCCTCCATTCCAAGCTTCTCAGCTGATGCCGCTAGAACCTTCGCTGCTGCTCATGGACTTGCCGTGAGGTCTGTTGGTGTTCGCGTGGCTGATGCTGCTGAGGCTTTCAGAGTTTCCGTTGCCGGCGGAGCTAGGCCAGCTTTCGCTCCTGCTGATTTGGGACATGGTTTCGGCCTGGCTGAGGTTGAGCTTTACGGTGACGTGGTTCTCCGCTTCGTGTCTTACCCAGATGAGACTGACCTGCCTTTCCTTCCCGGCTTCGAGAGAGTTTCCTCTCCTGGTGCCGTGGATTACGGCCTGACAAGGTTCGACCACGTGGTTGGAAACGTTCCCGAGATGGCTCCAGTGATCGATTACATGAAGGGCTTCCTTGGATTCCATGAGTTCGCCGAGTTCACTGCTGAGGACGTGGGAACCACTGAGTCCGGTTTGAACTCTGTGGTTCTCGCCAACAATTCTGAGGCTGTTTTGCTCCCTCTGAATGAGCCTGTGCATGGAACCAAGAGGAGAAGCCAGATTCAAACTTACCTGGAGTACCACGGTGGCCCTGGAGTTCAGCATATCGCCCTTGCTTCTAATGATGTGTTGCGCACACTCAGAGAGATGCGCGCCAGAACCCCCATGGGAGGTTTCGAGTTCATGGCCCCACCACAGGCTAAGTACTACGAGGGCGTTAGAAGGATTGCTGGAGACGTGTTGAGCGAGGAGCAGATCAAGGAGTGCCAAGAGCTGGGTGTTCTTGTGGATAGGGATGACCAGGGCGTTCTGCTTCAAATTGGTACTAAGCCAGTGGGCGACCGCCCTACATTCTGGCTTGAGATGATTCAAAGAATCGGCTGCATGGAGAAGGATGAGGTTGGACAGGAGTACCAAAAGGGCGGATGCGGTGGCTTCGGAAAGGGTAACTTCAGCGAGTTGTTCAAGTCAATCGAGGACTACGAGAAGAGCCTCGAGGTGAAGCAGTCAGTGGTTGCCCAAAAGTCCTGA
modifications: AsHPPDm-F372G-F383W-02 Nucleotide Sequence
notes: vector DBN11775
B2: AsHPPDm-F372V-02: nucleotide sequence encoding Avena sativa HPPD with F372V; vector DBN11776 (nucleic acid)
DNA: B1 DNA with G1115T, T1116C, G1148T, G1149C
modifications: AsHPPDm-F372V-02 Nucleotide Sequence
notes: vector DBN11776

How the values were obtained:
Assay type in all cases: in vivo
[1] = system: Arabidopsis thaliana T1 plants; assay: Topramezone tolerance of transgenic Arabidopsis thaliana T1 plants (spray, bleached leaf area grade, damage score); settings: for Resistance evaluation / Scores / Grade 0 (classification and statistics of the grade of pesticide damage; number of plants) / Grade 1 (classification and statistics of the grade of pesticide damage; number of plants) / Grade 2 (classification and statistics of the grade of pesticide damage; number of plants) / Grade 3 (classification and statistics of the grade of pesticide damage; number of plants): Arabidopsis thaliana T1 plants; for Grade 0 (classification and statistics of the grade of pesticide damage; number of plants) / Grade 1 (classification and statistics of the grade of pesticide damage; number of plants) / Grade 2 (classification and statistics of the grade of pesticide damage; number of plants) / Grade 3 (classification and statistics of the grade of pesticide damage; number of plants): 16 plants; for tolerance to topramezone (resistance class): topramezone at four-fold or eight-fold field concentration
Outline: (§1)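 Damage was assessed by bleaching grade (0 none; 1 <50%; 2 >50%; 3 100% of leaf area) one week after spraying. Sprays on 18-day-old T1 and wild-type plants used field-rate multiples: topramezone 25–200, isoxaflutole 35–280, mesotrione 52.5–420 g ai/ha.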

[2] = system: Arabidopsis thaliana T1 plants; assay: Mesotrione tolerance of transgenic Arabidopsis thaliana T1 plants (spray, bleached leaf area grade, damage score); set-up: Scores: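 damage score 0-100 computed as Σ(N×S)/(T×M)×100 over grades 0-3 with higher meaning more damage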; settings: Table 9; for Classification and statistics of the grade of pesticide damage Grade 0: number of plants at grade 0; for Classification and statistics of the grade of pesticide damage Grade 1: number of plants at grade 1; for Classification and statistics of the grade of pesticide damage Grade 2: number of plants at grade 2; for Classification and statistics of the grade of pesticide damage Grade 3: number of plants at grade 3; for Scores: pesticide damage score
Outline: as §1

[3] = system: Arabidopsis thaliana T1 plants; assay: Isoxaflutole tolerance of transgenic Arabidopsis thaliana T1 plants (spray, bleached leaf area grade, damage score); settings: Arabidopsis thaliana T1 plants; for Grade 0 (classification and statistics of the grade of pesticide damage; number of plants) / Grade 1 (classification and statistics of the grade of pesticide damage; number of plants) / Grade 2 (classification and statistics of the grade of pesticide damage; number of plants) / Grade 3 (classification and statistics of the grade of pesticide damage; number of plants): 16 plants;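 as to Scores: Weighted damage index from 0 to 100 where higher means more damage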
Outline: as §1

[4] = topramezone 100 g ai/ha (4x field concentration)
[5] = topramezone 200 g ai/ha (8x field concentration)
[6] = isoxaflutole 140 g ai/ha (2x field concentration)
[7] = isoxaflutole 280 g ai/ha (4x field concentration)

Row | Molecule | Resistance evaluation [1, 4] | Scores [1, 4] | Grade 0 (classification and statistics of the grade of pesticide damage; number of plants) [1, 4] | Grade 1 (classification and statistics of the grade of pesticide damage; number of plants) [1, 4] | Grade 2 (classification and statistics of the grade of pesticide damage; number of plants) [1, 4] | Grade 3 (classification and statistics of the grade of pesticide damage; number of plants) [1, 4] | Resistance evaluation [1, 5] | Scores [1, 5] | Grade 0 (classification and statistics of the grade of pesticide damage; number of plants) [1, 5] | Grade 1 (classification and statistics of the grade of pesticide damage; number of plants) [1, 5] | Grade 2 (classification and statistics of the grade of pesticide damage; number of plants) [1, 5] | Grade 3 (classification and statistics of the grade of pesticide damage; number of plants) [1, 5] | tolerance to topramezone (resistance class) [1] | Resistance evaluation ([2]; mesotrione 210 g ai/ha (2×)) | Classification and statistics of the grade of pesticide damage Grade 0 ([2]; mesotrione 210 g ai/ha (2×)) | Classification and statistics of the grade of pesticide damage Grade 1 ([2]; mesotrione 210 g ai/ha (2×)) | Classification and statistics of the grade of pesticide damage Grade 2 ([2]; mesotrione 210 g ai/ha (2×)) | Classification and statistics of the grade of pesticide damage Grade 3 ([2]; mesotrione 210 g ai/ha (2×)) | Scores ([2]; mesotrione 210 g ai/ha (2×)) | Resistance evaluation ([2]; mesotrione 420 g ai/ha (4×)) | further results
1 | B1 | Highly resistant | 0 | 16 | 0 | 0 | 0 | Highly resistant | 0 | 16 | 0 | 0 | 0 | highly-resistant | Highly resistant | 16 | 0 | 0 | 0 | 0 | Highly resistant | Classification and statistics of the grade of pesticide damage Grade 0 ([2]; mesotrione 420 g ai/ha (4×)): 13; Classification and statistics of the grade of pesticide damage Grade 1 ([2]; mesotrione 420 g ai/ha (4×)): 3; Classification and statistics of the grade of pesticide damage Grade 2 ([2]; mesotrione 420 g ai/ha (4×)): 0; Classification and statistics of the grade of pesticide damage Grade 3 ([2]; mesotrione 420 g ai/ha (4×)): 0; Scores ([2]; mesotrione 420 g ai/ha (4×)): 6; Resistance evaluation [3, 6]: Highly resistant; Scores [3, 6]: 0; Grade 0 (classification and statistics of the grade of pesticide damage; number of plants) [3, 6]: 16; Grade 1 (classification and statistics of the grade of pesticide damage; number of plants) [3, 6]: 0; Grade 2 (classification and statistics of the grade of pesticide damage; number of plants) [3, 6]: 0; Grade 3 (classification and statistics of the grade of pesticide damage; number of plants) [3, 6]: 0; Resistance evaluation [3, 7]: Highly resistant; Scores [3, 7]: 8; Grade 0 (classification and statistics of the grade of pesticide damage; number of plants) [3, 7]: 12; Grade 1 (classification and statistics of the grade of pesticide damage; number of plants) [3, 7]: 4; Grade 2 (classification and statistics of the grade of pesticide damage; number of plants) [3, 7]: 0; Grade 3 (classification and statistics of the grade of pesticide damage; number of plants) [3, 7]: 0
2 | B2 | Highly resistant | 0 | 16 | 0 | 0 | 0 | Highly resistant | 0 | 16 | 0 | 0 | 0 | highly-resistant | Moderately | 5 | 7 | 4 | 0 | 31 | Poorly resistant | Classification and statistics of the grade of pesticide damage Grade 0 ([2]; mesotrione 420 g ai/ha (4×)): 0; Classification and statistics of the grade of pesticide damage Grade 1 ([2]; mesotrione 420 g ai/ha (4×)): 8; Classification and statistics of the grade of pesticide damage Grade 2 ([2]; mesotrione 420 g ai/ha (4×)): 7; Classification and statistics of the grade of pesticide damage Grade 3 ([2]; mesotrione 420 g ai/ha (4×)): 1; Scores ([2]; mesotrione 420 g ai/ha (4×)): 52; Resistance evaluation [3, 6]: Moderately; Scores [3, 6]: 33; Grade 0 (classification and statistics of the grade of pesticide damage; number of plants) [3, 6]: 6; Grade 1 (classification and statistics of the grade of pesticide damage; number of plants) [3, 6]: 5; Grade 2 (classification and statistics of the grade of pesticide damage; number of plants) [3, 6]: 4; Grade 3 (classification and statistics of the grade of pesticide damage; number of plants) [3, 6]: 1; Resistance evaluation [3, 7]: Poorly resistant; Scores [3, 7]: 67; Grade 0 (classification and statistics of the grade of pesticide damage; number of plants) [3, 7]: 0; Grade 1 (classification and statistics of the grade of pesticide damage; number of plants) [3, 7]: 0; Grade 2 (classification and statistics of the grade of pesticide damage; number of plants) [3, 7]: 16; Grade 3 (classification and statistics of the grade of pesticide damage; number of plants) [3, 7]: 0
